Test results published in paper PMC3561583.

Biological target: FLAG-Sur1 (UniProt Q09427)
Experiment: FRET or BRET

Sequence of UniProt Q09427 (Q09427 whole entry): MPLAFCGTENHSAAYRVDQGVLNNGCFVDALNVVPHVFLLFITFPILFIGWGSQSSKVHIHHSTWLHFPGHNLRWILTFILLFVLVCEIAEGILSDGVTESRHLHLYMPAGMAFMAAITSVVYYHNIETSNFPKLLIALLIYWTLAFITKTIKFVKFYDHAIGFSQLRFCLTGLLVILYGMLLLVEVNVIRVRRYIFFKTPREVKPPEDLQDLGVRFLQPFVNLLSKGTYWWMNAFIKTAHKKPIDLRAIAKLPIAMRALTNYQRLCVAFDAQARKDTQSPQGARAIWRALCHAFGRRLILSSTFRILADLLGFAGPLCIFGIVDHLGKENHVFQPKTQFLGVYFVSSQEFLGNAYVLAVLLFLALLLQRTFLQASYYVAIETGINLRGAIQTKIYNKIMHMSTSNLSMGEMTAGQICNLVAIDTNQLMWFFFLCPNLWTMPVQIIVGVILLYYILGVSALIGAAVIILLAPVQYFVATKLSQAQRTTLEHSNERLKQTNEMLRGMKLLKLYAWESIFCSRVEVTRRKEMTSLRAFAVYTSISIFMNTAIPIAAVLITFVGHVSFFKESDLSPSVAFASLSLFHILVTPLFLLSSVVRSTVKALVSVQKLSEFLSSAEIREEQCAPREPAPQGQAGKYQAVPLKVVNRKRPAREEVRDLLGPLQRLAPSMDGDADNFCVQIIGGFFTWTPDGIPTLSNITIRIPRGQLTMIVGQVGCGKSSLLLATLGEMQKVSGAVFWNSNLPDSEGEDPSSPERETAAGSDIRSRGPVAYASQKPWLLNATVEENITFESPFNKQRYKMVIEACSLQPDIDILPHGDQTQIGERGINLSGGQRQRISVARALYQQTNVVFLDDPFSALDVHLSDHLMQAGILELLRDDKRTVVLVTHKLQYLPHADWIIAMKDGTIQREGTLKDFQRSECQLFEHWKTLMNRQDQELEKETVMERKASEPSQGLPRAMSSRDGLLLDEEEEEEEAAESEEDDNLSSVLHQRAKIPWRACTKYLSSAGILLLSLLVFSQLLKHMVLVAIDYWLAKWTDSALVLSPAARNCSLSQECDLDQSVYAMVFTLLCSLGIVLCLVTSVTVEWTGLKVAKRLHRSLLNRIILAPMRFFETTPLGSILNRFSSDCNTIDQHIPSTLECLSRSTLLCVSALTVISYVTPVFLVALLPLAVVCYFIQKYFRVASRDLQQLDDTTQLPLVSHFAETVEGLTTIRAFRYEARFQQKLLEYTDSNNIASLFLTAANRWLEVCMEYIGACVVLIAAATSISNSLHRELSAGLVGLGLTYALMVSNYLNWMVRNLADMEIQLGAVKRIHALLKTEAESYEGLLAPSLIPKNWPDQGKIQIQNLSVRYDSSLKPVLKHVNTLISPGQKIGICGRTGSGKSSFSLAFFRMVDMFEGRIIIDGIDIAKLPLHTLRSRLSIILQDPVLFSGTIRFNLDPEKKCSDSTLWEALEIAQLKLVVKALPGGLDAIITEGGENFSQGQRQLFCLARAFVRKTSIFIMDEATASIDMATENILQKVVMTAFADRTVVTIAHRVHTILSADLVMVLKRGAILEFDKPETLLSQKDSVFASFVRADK

Substance: Myc-Trpm4 (from UniProt Q7TN37-1 1-1213) (natural protein)
- FRET efficiency at steady state: 11%
